Results as given in the DeepSol protein solubility set.

Assay: soluble on expression in E. coli; label from the status in PepcDB or PDB records

| Sequence | soluble on expression in E. coli |
| --- | --- |
| MAHHHHHHMLYLKEIELGNYYICNLNDYPSEHCVVDYDPNKRIKFLCPIVHNEGEHMNTYNSSYCFTYEGIKDRLIIRNNEEPIYTTLPGIILENQILYDRYNLGIYIMPFKLEADMSIVCVCDTKKEYKGITPYIKINIKNSNNVLGVGSSDEYIKGCDFGNNKGKHQFLTSPQSHEHRSVCAILANPGDIVGINCINYNEDDPQNNDVTLEPSNCFSTVSFSLYTFSFVKMNINNILPDAKYYPETSAFPKDPNFKKFSTTSYLWIPANVPQAFFLVCSCKYAKGEGTAMYHVSSSTLEV | not soluble |
| MAHHHHHHMMLRSHVGYDDLQNGGSDQPVSFLRSAAGRTYLADGSSALSSAQLTAAQKLLPLTDRSSQAALDAARLEPPIEHASVMYHGCQQAVLNAELREKVEAHYKHWSSRVEELQALLSDLPTESALHSTRAVENLHSYLGAYRCTEDMLVTPSEVVEQHALRTPVPEIDVMFQMPAIPMDTMRRALDDLLRSPYLLAPLDTHLAHLSLLDKLGQLSWSGEGEVTAPLSKKPRGKRAVARKDCTVDESNETGVVLQAEEAAAEEDIYPSRAAVAMHERLHYNPGDYAQRELKKSEEALRELQDRMQTAKRQKEEAIDAADPLTALRNLHAQVDFSNDLLLLYRARMALVSLHSDDTRDFRRDVVDLIDDSHQSVQAVHRYAREALPSVQHDVRAMTEVIRQTQQRLIAMQATEAAADAGMRAHLCDMDKAARVLWEEVGALLEKIAENARERGRYAQKCMSLREQRAKEAAAVNAQLQAQSAHCERLCRCEEVLTRWNQAGDVFGKYMDACVPKLLKHLAAVEESDADLAQREAEGYVGCYEQFVYAAEEARAKRCTQADRMRLLQRSTLLNQERASDTMDPDAPAHAQRLDDVSRELDEVQLYLKYLSDMEADRKAEVDPVLRGVLARQTQAQLVTTGEEGEAEKPLPTPGLLEDAPAASTADAKPSLASPSTAAETTKSTSAVPATAAGDGAVVAATTTATTTAPPSLSVTVAHPFVTARLIGLAHESDYISQQGQLLGQEMQAVEAKWTGLRHSRKELQAMEEKYKNGDDIRALLGVEKL | soluble |
| MAHHHHHHMMNTSLLGQDVDEIQSAVDRWYHQSSSNLQASHAAFTAQLRQLQERLGLDPGAPTLSAHVDAMITPPRHMYLSDDNNSGSPPMASPPISRGQLNYDHLLDEVINKGASMPPFNPEEEAERRRRPNAESVRAPSTPPEDCNGPCQVLVEFKRKRVLQYESPYYVAPGEHVVVGGDRGEDIGLVTHSWRDAEAHQLGENRDKGVGKVLRVASVLEVTQLQGVQTELETRAVEVAQEKVQESGLPMRIVDAEYQFDRRKLTFYYQSMHRLDFRTLVRDLYKTFRARIWMEPDTSS | soluble |
| MAHHHHHHMMRRVYAPVFCSVAAARFAATSAAKKYDLFGYEVDTNTAPWIEKIKKCKYYDEAGEVLVNMNVSNCPPDIATYNATLQCIYQSPSKQSTPVDNESKFCAMMDLLEEMQHRNRLKPNEESWTWVMKECVKSGQFRLGYCIQQVMETECKGCPADLVKANEANAQKAKTEGKEHPGHLSQQAGLFDVKVE | not soluble |
| MAHHHHHHMMSQSLNALRSGTACFPTTIAQQRRWITRLYTSYYPGVLYPNQLVQHKQRLPPGVSLSTALKARTQTRQEQSVAGREVPEENETRGVSWTDASSTDVMHTGNARRQEKVSVATGRSYVPLGEVAKLELQGDYCMEGGLFQEALERYGVVAKAYSIAYPENHSQRIGILLKLASAFRHVGRLDSSKVNIENALKMLDASSRPSLELICEALLELGLTREAKSMKNEGAEAYEEAVEVLNLFHNWGESHRMLRLLPRLGRRFNLNFEEKFVYFSPFDYDRTFAIADQCMERAEKVYRETGDSNGIIRVLQCRKEMIDKKFFNLRDFAGRIHTMRGHWMRRAQHLTNAPTPDELLRYTPTIHQVYRDFKYELTAPIGREKEVMPGVNRVVLDMGNPYRRRGRLSNKMLRDADHNFANYVRREEYNA | not soluble |
| MAHHHHHHMNGRYVPQEVLGTGTYGRVLRCNDVLTGRQVAVKVSQRDAAYRRSAMNEIRVLQLLSHTDNALKMFDFFEDSGHLCIASELLCTDFYEVLRKNGFQPLSLDTVRIVGERVLRALAELHKAGYMHCDIKPANVMLRFNETDRSNLSDFTKTCLIDFGAARQFHENTYYDVQSLWYRAPEVMLGLPYTSHIDSWSVGCLLFELYTGKPLFAGENPREQMTSIMCTVGMPPMEAFSSGANVEKLQLPCLAMDVNAEANLRNLIASYRCNNTGFNHSYQLVGEESAFVNLLCALLQPDVRWRLSCTDALHHAFFTSRCLYHGNIVSANFSVFSPSSNGLQSSIDSNFGAVFSSTGNDARGFGGFEHLVPQQTQPHPNPHPQPRLKSESSPILPANSNSVPLVGLVGSPPGMVLPGTRPPASSQVNIPSSRVVLQNVMYPTPPMKIIQPVPFNTQQSQKALQQPQRVSANMLPVMVSAIGNPYSFPPCVRPECQVQNWEPVIFQPQQQIPPEVTPMFQCKILPGGCQYNYQGGADPSFYGASIKSGLHSAVYVPS | not soluble |
| MAHHHHHHMNKFENFYKVPISYKNRKNEIYKYDNLEYNKMKYGMPEYYRCPYYMHENRNLYNTESCYTPNINVGRNSFYGKTLDPNDKICEENDSVYNILEEDHKEESFKKIECMNKEDDRKKIYNKVEKNDDENIDNKKHNYCEKYEEVYPKDRSSIKIIYNDVDQQIDHNLYDDENEIVCDNEIKKRKKRDRKVFMGKYFFSDIINTIIYPCTNKSLQKYQYGSVENMDYSLYNDIQKGQKIQKVDKIKNKKAPQIIVKF | not soluble |
| MAHHHHHHMNLKTKLQKRRDEVNTCLCIGLDPDEADIKSFMQSEKQNGYQSIKKNLSNHGSSSQGGLFTPQVGGTMLLAENPPKEVQEKDEFFYFFNHFCFYIINETKQYALSYKMNFAFYLPYGSLGVDVLKNVFDYLHYLDVPTILDIKMNDIGNTVKHYSKFIFHYLRSDSCTANIYMGTHMLRDICLDEECKRHYSTFVLIKTTNPDSHIFQNRLSLDGKEAYVVIADEAQKMAKQLHLEENGEFVGFVVGANCYDEMKKIRELFPDCYILAPGVGAQKGDLRKTLCNGYSKNYERLLINVGRAITKSGNPQQAAREYYHQIKEILAELRE | soluble |
| MAHHHHHHMNLNKKNEELEKVKIVLTQKIKNLESNLSPKESEIKVMREKIDEMAKSFENNHKKRVNLQIEINEYKMKIKFLHDDLLNYNKTIMNYEKILKNLQDHIKECYLHLHDKKIFNSSFLNLYNKFHKVNDVQNYDAKNVFSEYIRQKEYLENMIEVLKDKLHKETEAFRNEKIKMMNENSLLLKEINDLKMDLNFLKSECHEAQLQNRKMKFLKKRSESKERKKEKKEKKEKKEKKENKDNNEEKNIDIK | soluble |
| MAHHHHHHMNNSKENDSVSKLSFKNKNIKLIKVPKFVSNKWLQYNNKDIVGLLGCNNNNNNDSEITELYVQKDDSDNVKKLRCNKNNTVNTYILKQNVIKLKSTNKSVSNSAGTLNNKSNDYTNTNKGKNTMNNLSKDNSDKHKEFDYVVCADLIKTCDYTYSFLPTLDQDYSSILKERHYKTNVKKERFTIIETRNEENMDATHTLFKYYTSEDKLNNESKDKNMKNNKRLFTDNDNLNTVSHSTSKQKAKQSKKMHVFDLDKAKISIFKIFEREGQNGVPFSFFTKSFNIPANHIKGILDEIAIKGKRDTDKKTVYFLKNCIG | not soluble |
| MAHHHHHHMNTFFLSRFRGGTFFLQKYEKIWNRAKGYHTYNYIFQNNKNIINHKKKNRNLFLYEKRNFYTSNDGKKYTKKFWNHLGFVIIPQETAYIVERLGKYNKTLLAGIHFLIPFIDKIAYVFSLKEETITIPNQTAITKDNVTLNIDGVLYIKCDNPYNSSYAIEDAVFAVTQLAQVTMRSELGKLTLDATFLERDNLNEKLVKAINESAKNWGIKCMRYEIRDIILPVNIKNAMEKQAEAERRKRAEILQSEGERESEINIAIGKKRKSILIAEGQSFAIKAKADATAEAIEIISNKIKKLDSNNAISLLVAEQYIDVFSNICKNNNTVIIPADLNNISSLISQSLSIYNNIQNSKKENNQIHTLPIQKQIHSDMNN | not soluble |
| MAHHHHHHMNTSLSNNENENNFFIKSFFESLSNFIKNIKIEIKDTFELLNYPCVYQNSKKKFSVSENEDYKNSLTTNVISKIDKKNIENFRVYQKELHNILQNIKTFNEKYKLDVPLLSIMENLIILHLINEYKINNIVKKIQEHNIPMPELNSDLPDYLIPTLELEENQNESNLNVSISEINNLSINNNAVKHILENAQLKVDFSKLVKLNGENHLNSSSINPSSELNEKSDELTLYKKDDKIHNLTHDIKEEINNERNEDQYLNRSHNNEDEKHTLMTSKKEEKVNLIQNIGLSEETLKLLNLLPKKRKNDQN | not soluble |
| MAHHHHHHMPFSLGELQNVFLDALTGCPPDAPQQTRDTAVTVAGASIFAGSWQPLESTRVPVRAYLRGTGEFDTEDSCRRAVMRVVDATLNDVLNDDAVNAFIGAKACESADIVGACEHILRKYLLWMLDGYLHYDGTPQCPFYDALKSTVCAFSVEWGQTFGPMFAEAQSPDEFFSLLVTRGAQHHATAVATNPDDAKVRMATAMSIQVFLMAKTYSPSTPFPSRVAL | soluble |
| MAHHHHHHMPLIVPTPPAHPAQSPNQANGELLGRLMKLYRALCVRHDELGQEVILNDILAFLTRTHQHDMAESVIATCEISLPHRSNNQAARYFYYVGLTRALRLEYVDANQCLQQALRKAPERAFGFRVAATKLALVVQLLLGEIPPRSDFLQKDMRESLSPYLQLASCVRFGQLSRFMSILQQHKNIFEHDRTYSLILRVRQHVIKTGLRRICHAYSRISIPDICFKLSMENPADAEYIIAKAIRDGVIDAVIDHEKGHLISSDTVDVYSTSEPLLALQRRIQFLNVTHNDAKRSMRYTAADPELEEERRKVDREEMDSALRAALEDEELGGTDFEDGLP | not soluble |
| MAHHHHHHMPLNAQQLLFHLARRNSAPPWRWFPTATENKLFERLDTSGSPTAQVVYSQFVQARLQGSCSAGTAPIQLDLFLDELTPSDDGDYILRCPLANSHLMKRLVVPAPMRIAMHGLLQEVIDVFQQAGIRYWAAGGTLLGAVRHGCIIPWDDDVDLAISVEDELKLRSAFKYPCAHGSDDNIGDNSGDCNSEYSSESSSNEVEKNDGNNGGNLVLEYVPLFGYKVYSRLLPPPFPSPSLPGVGSSCLRYGYFVDIFIMRESKNRFVLARESAQRTWPDEWWHVDELFPLLQKPFAAVAACASEQHPQTALQLSVGRYPLMHLHRLYGETCMQEALIPRELHGRELSHSLRIPLELL | not soluble |
| MAHHHHHHMPLVEYVNEEGYRLDGRKEDECRLIKINVGNENIFTDADGFAFYEIGNTKLLSYIQGPTELKKSEEKCSIKCEVFLSPFNVYEKKKKKTKDSVTNEISAYIRNICENIILLDLYKNSEINIFLYIIERDGGVKHAAINTCILALIDAGIAIKYFISACSVLFLQNRILVDGNQLEINSGAPELTMVIELNTHKIVLLEFDAEVPIDIFEAMVRTCMDCCINLGNVMKLTVKENAIKLLCLNNMLNA | not soluble |
| MAHHHHHHMPPPNTLQRGSEWVAQCMRDIKAAKLQQTVRPYSNGTPAGEALPVRTIVATSRIHRGEHLGTVKRDSIMTGERASQLLRRACRGGPSQTDVTAATGLQPLAAQRFDDLVSRISSLPSALSVPPHLLLSRDALLVTVALYLTRSPLNAGVLPAESPLRAWADALPRRPPPMGALLRRSFLSHDDVEPLPRRLRLGQRTKEVAPGEDVAAASTELMVQAVEQGELELADLRRPEMETALTPTVLTNYFKGRMSALTQRQRQSQRARGGVAEAEEGALHLFMTWERQLQTHFVDALLPVLLLPSCGSCASNLEAVQDSAAWLGEESALRWAHFMTRSRAVNLNWRHPGPPQLSIVPLVDMLNHTSRANANVVYQREDSGDVCVTASRTIEAGEELVLRYNHIGQRGCLFGDLPRPSKPTAEHERGRLSGKAAAVADEVHRIEKRQYWELYACDEDEEAVQHTGHTPSTSFTASTRCGTFDPAPPAAVGQQEMEQEVQWLWRFGFLRSNEEKNREAALLWSRGLRSRIAHLTDVRRKGRPGEFVLGVPEGLQHLREQREQLERNRYNNKKVFPPQQL | not soluble |
